Test results: PMC6056500, “Novel interactomics approach identifies ABCA1 as direct target of evodiamine, which increases macrophage cholesterol efflux” (Scientific Reports, 2018)

T1: ATP-binding cassette transporter A1 (ABCA1) (Homo sapiens, UniProt O95477)
T1 construct: recombinant ABCA1 peptide (Abcam #ab125995), C-terminal domain 2085–2245aa
T1 sequence (O95477 2085-2245): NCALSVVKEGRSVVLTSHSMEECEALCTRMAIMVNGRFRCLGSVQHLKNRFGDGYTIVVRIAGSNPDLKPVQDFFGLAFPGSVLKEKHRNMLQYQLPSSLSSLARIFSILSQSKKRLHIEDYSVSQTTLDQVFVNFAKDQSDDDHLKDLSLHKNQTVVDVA

T2: recombinant human retinal dehydrogenase-1 (ALDH1A1) (human, UniProt P00352 1-501)
T2 construct: retinal dehydrogenase 1 (aldehyde dehydrogenase 1 family, member A1), human, recombinant; also called ALDHA1; aldehyde dehydrogenase 1 family, member A1
T2 sequence (looked up): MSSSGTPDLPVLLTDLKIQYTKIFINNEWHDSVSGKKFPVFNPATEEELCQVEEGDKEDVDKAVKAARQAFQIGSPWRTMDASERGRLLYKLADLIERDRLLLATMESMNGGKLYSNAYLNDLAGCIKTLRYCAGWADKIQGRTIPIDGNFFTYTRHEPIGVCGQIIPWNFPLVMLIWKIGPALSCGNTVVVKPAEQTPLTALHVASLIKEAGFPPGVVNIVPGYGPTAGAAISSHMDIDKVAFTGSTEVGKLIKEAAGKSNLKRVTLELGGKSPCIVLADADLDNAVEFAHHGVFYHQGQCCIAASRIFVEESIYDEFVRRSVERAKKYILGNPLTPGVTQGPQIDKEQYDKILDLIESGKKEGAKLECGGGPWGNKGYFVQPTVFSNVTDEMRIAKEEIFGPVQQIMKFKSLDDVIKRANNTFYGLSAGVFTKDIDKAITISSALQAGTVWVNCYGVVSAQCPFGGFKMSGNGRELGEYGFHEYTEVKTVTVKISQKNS


Legend:
[1] = target: T1, ATP-binding cassette transporter A1 (ABCA1); assay: SPR (Biacore […], immobilized ABCA1 C-terminal peptide on CM5 chip); also identified by NPOT in THP-1 extract
[2] = target: T2, recombinant human retinal …; assay: SPR; Biacore 3000; ABCA1 peptide immobilised on a CM5 chip by amine coupling; proteins dialysed against HBS-E (10 mM Hepes, 150 mM NaCl, 3 mM EDTA); ALDH1A1 injected at 6e-8 to 1e-6 M; 1:1 fit (Langmuir or drifting baseline); conditions: both partners purified

| Ka [2] [M⁻¹] | Kd [2] [nM] | Molecule | Kd [1] [nM] |
| --- | --- | --- | --- |
| – | – | CN1c2ccccc2C(=O)N2CCc3c([nH]c4ccccc34)C21 (stereo in doubt) [evodiamine] | 810 |
| 1.25e+06 | 803 | recombinant ABCA1 peptide (Abcam #ab125995, covering C-terminal domain 2085-2245aa) (domain or fragment, UniProt O95477 2085-2245, looked up, check the Abcam data sheet; source: bought: Abcam #ab125995, recombinant) NCALSVVKEGRSVVLTSHSMEECEALCTRMAIMVNGRFRCLGSVQHLKNRFGDGYTIVVRIAGSNPDLKPVQDFFGLAFPGSVLKEKHRNMLQYQLPSSLSSLARIFSILSQSKKRLHIEDYSVSQTTLDQVFVNFAKDQSDDDHLKDLSLHKNQTVVDVA | – |
